The numbers were not newly measured in PMC2817915, which cites them from elsewhere.

Where “and” joins values, the source holds several entries; their conditions need not be identical. Equal entries are not always repeated.

Targets include Asp101 (UniProt position 119, KKIVSDGNGMN); Asp119 (UniProt position 137, RCKGTDVQAWI); Asp18 (UniProt position 36, KRHGLDNYRGY); Asp48 (UniProt position 66, TNRNTDGSTDY); Asp52 (UniProt position 70, TDGSTDYGILQ); Asp66 (UniProt position 84, RWWCNDGRTPG); Asp87 (UniProt position 105, ALLSSDITASV); Glu35 (UniProt position 53, CAAKFESNFNT); Glu7 (UniProt position 25, VFGRCELAAAM); His15 (UniProt position 33, AAMKRHGLDNY).

Common to all, as to settings: native HEWL; ligand state not stated

One may read the pKa as the pH at which an ionisable group is half protonated. Consider “Hen egg-white lysozyme (HEWL, lysozyme C) (Gallus gallus)”, for which the pKa with Asp101 was 4.09; with Asp119, 3.20; with Asp18, 2.66; with Asp48, 2.50; in the series with Asp52, 3.68 and 3.6−3.76; with Asp66 it was 2.00. For the same substance, the pKa in the series with Asp87 is on record as 2.07; in the series with Glu35, 6.20; in the series with Glu7 it was 2.85; in the series with His15, 5.71.
